Reference: article PMC4169579, “Proteolytic Activity of Prostate-Specific Antigen (PSA) towards Protein Substrates and Effect of Peptides Stimulating PSA Activity” (PLoS ONE, 2014)
Positions of bridges follow the written chain, without caps; N, C: chain ends. No end group written: not given here.

B1: 12-amino acid cyclic peptide B2 with C-terminal amidation (B2-NH2) (peptide)
peptide: CVFAHNYDYLVC-NH2
modifications: disulfide 1-12; N-terminus assumed
SMILES: CC(C)C[C@@H]1NC(=O)[C@H](Cc2ccc(O)cc2)NC(=O)[C@H](CC(=O)O)NC(=O)[C@H](Cc2ccc(O)cc2)NC(=O)[C@H](CC(N)=O)NC(=O)[C@H](Cc2c[nH]cn2)NC(=O)[C@H](C)NC(=O)[C@H](Cc2ccccc2)NC(=O)[C@H](C(C)C)NC(=O)[C@@H](N)CSSC[C@@H](C(N)=O)NC(=O)[C@H](C(C)C)NC1=O
notes: cyclic; purity over 95% by HPLC; source: synthetic peptide, bought as custom peptide (AnaSpec, NeoMPS, Biomatik or GenScript)
B2: 12-amino acid cyclic peptide B2 (without C-terminal amidation) (peptide)
peptide: CVFAHNYDYLVC-OH
modifications: disulfide 1-12; N-terminus assumed
SMILES: CC(C)C[C@@H]1NC(=O)[C@H](Cc2ccc(O)cc2)NC(=O)[C@H](CC(=O)O)NC(=O)[C@H](Cc2ccc(O)cc2)NC(=O)[C@H](CC(N)=O)NC(=O)[C@H](Cc2c[nH]cn2)NC(=O)[C@H](C)NC(=O)[C@H](Cc2ccccc2)NC(=O)[C@H](C(C)C)NC(=O)[C@@H](N)CSSC[C@@H](C(=O)O)NC(=O)[C@H](C(C)C)NC1=O
notes: as for B1

What was measured:
[1] = target: T1, Prostate-specific antigen (PSA or kallikrein-related peptidase-3, KLK3), major form of active PSA (isoform … (human, UniProt P07288 25-261)); test: SPR; Biacore T100; PSA amine-coupled to a CM5 chip (2000-3900 RU); alpha-chymotrypsin surface as reference, subtracted; peptides 1.2-600 uM flowed in PBS pH 7.4 (6.7 mM PO4, 0.15 M NaCl), 40 ul/min, 25 C, contact 60 s, dissociation 180 s; Steady State Affinity model; settings: both partners purified
T1 construct: prostate-specific antigen (PSA, kallikrein-related peptidase-3, KLK3), human, 28 kDa serine protease; the major enzymatically active form (isoform PSA-B) isolated from seminal fluid; Amine-coupled to a CM5 chip for SPR
T1 sequence (P07288 25-261): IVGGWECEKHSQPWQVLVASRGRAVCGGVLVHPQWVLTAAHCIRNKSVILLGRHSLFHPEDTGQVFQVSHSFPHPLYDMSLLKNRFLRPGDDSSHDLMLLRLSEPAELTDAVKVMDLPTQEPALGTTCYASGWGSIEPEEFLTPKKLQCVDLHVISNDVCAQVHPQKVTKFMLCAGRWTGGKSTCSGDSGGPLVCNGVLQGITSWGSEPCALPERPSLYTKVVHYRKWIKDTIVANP

[2] = target: T1, Prostate-specific antigen (PSA or …); test: cell-based or functional assay

Binder | Kd [1] [µM] | [peptide]2V: peptide concentration with two-fold stimulation of PSA activity, chromogenic substrate S-2586 [2] [µM] | [peptide]2V: peptide concentration with two-fold stimulation of PSA activity, fluorogenic substrate 4-morpholinecarbonyl-HSSKLQ-AMC [2] [µM]
B1 | 56.5 | 3.33 | 2.94
B2 | 73.6 |  | 
CVAYCIEHHCWTC (disulfide 1-13, 5-10) [13-amino acid double cyclic peptide C4] |  | 1.55 | 1.36
